In patent US20230365956A1 (SYSTIMMUNE, published 2023):

Legend:
[1] = biological target: T1, SARS-CoV-2 RBD variant Delta (L452R, T478K) (Sino Biological) (SARS-CoV-2, UniProt P0DTC2 319-541); assay: BLI, avidity format: biotinylated RBD on SA sensor, binder in solution
T1 construct: domain: RBD

[2] = biological target: T2, SARS-CoV-2 RBD variant Beta (K417N, E484K, N501Y) (Sino Biological) (SARS-CoV-2, UniProt P0DTC2 319-541); assay: as above
T2 construct: domain: RBD

[3] = biological target: T3, SARS-CoV-2 RBD, wild type (Sino Biological) (SARS-CoV-2, UniProt P0DTC2 319-541); assay: as above
T3 construct: domain: RBD

[4] = biological target: T4, SARS-CoV-2 RBD variant Alpha (N501Y) (Sino Biological) (SARS-CoV-2, UniProt P0DTC2 319-541); assay: as above
T4 construct: domain: RBD

[5] = biological target: T5, SARS-CoV-2 RBD variant Kappa (L452R, E484Q) (Sino Biological) (SARS-CoV-2, UniProt P0DTC2 319-541); assay: as above
T5 construct: domain: RBD

[6] = biological target: T6, SARS-CoV-2 RBD variant Gamma (K417T, E484K, N501Y) (Sino Biological) (SARS-CoV-2, UniProt P0DTC2 319-541); assay: as above
T6 construct: domain: RBD

[7] = biological target: T7, SARS-CoV-2 RBD variant Lambda (L452Q, F490S) (Sino Biological) (SARS-CoV-2, UniProt P0DTC2 319-541); assay: as above
T7 construct: domain: RBD

[8] = biological target: T1, SARS-CoV-2 RBD variant Delta (L452R, …); assay: BLI, avidity format: response at highest analyte concentration
[9] = biological target: T2, SARS-CoV-2 RBD variant Beta (K417N, …); assay: as above
[10] = biological target: T3, SARS-CoV-2 RBD, wild type (Sino …); assay: as above
[11] = biological target: T4, SARS-CoV-2 RBD variant Alpha (N501Y) …; assay: as above
[12] = biological target: T5, SARS-CoV-2 RBD variant Kappa (L452R, …); assay: as above
[13] = biological target: T6, SARS-CoV-2 RBD variant Gamma (K417T, …); assay: as above
[14] = biological target: T7, SARS-CoV-2 RBD variant Lambda (L452Q, …); assay: as above
[15] = biological target: T1, SARS-CoV-2 RBD variant Delta (L452R, …); assay: BLI, affinity format: binder on AHC sensor, RBD in solution
[16] = biological target: T2, SARS-CoV-2 RBD variant Beta (K417N, …); assay: as above
[17] = biological target: T3, SARS-CoV-2 RBD, wild type (Sino …); assay: as above
[18] = biological target: T4, SARS-CoV-2 RBD variant Alpha (N501Y) …; assay: as above
[19] = biological target: T5, SARS-CoV-2 RBD variant Kappa (L452R, …); assay: as above
[20] = biological target: T6, SARS-CoV-2 RBD variant Gamma (K417T, …); assay: as above
[21] = biological target: T7, SARS-CoV-2 RBD variant Lambda (L452Q, …); assay: as above
[22] = biological target: T1, SARS-CoV-2 RBD variant Delta (L452R, …); assay: BLI, affinity format: response at highest analyte concentration
[23] = biological target: T2, SARS-CoV-2 RBD variant Beta (K417N, …); assay: as above
[24] = biological target: T3, SARS-CoV-2 RBD, wild type (Sino …); assay: as above
[25] = biological target: T4, SARS-CoV-2 RBD variant Alpha (N501Y) …; assay: as above
[26] = biological target: T5, SARS-CoV-2 RBD variant Kappa (L452R, …); assay: as above
[27] = biological target: T6, SARS-CoV-2 RBD variant Gamma (K417T, …); assay: as above
[28] = biological target: T7, SARS-CoV-2 RBD variant Lambda (L452Q, …); assay: as above

B1: Tixagevimab (antibody, V domains shown)
VH: QMQLVQSGPEVKKPGTSVKVSCKASGFTFMSSAVQWVRQARGQRLEWIGWIVIGSGNTNYAQKFQERVTITRDMSTSTAYMELSSLRSEDTAVYYCAAPYCSSISCNDGFDIWGQGTMVTVSS
VL: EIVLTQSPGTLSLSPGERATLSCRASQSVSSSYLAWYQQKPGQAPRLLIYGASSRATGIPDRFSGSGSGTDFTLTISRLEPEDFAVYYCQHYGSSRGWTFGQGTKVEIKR
Q: B1 was tested. Which Kd [1] did it give?
A: 0.0303 nM

Q: What about the koff [1] of the same binder?
A: 1.28e-05 s⁻¹

Q: What about the kon [1] of the same binder?
A: 422000 M⁻¹ s⁻¹

Q: What about the Kd [2] of the same binder?
A: < 0.001 nM

Q: And the koff [2]?
A: < 1e-07 s⁻¹

Q: What about the kon [2] of the same binder?
A: 440000 M⁻¹ s⁻¹

Q: What about the Kd [3] of the same binder?
A: 0.0221 nM

Q: And the koff [3]?
A: 7.4e-06 s⁻¹

Q: What about the kon [3] of the same binder?
A: 335000 M⁻¹ s⁻¹

Q: What about the Kd [4] of the same binder?
A: < 0.001 nM

Q: What about the koff [4] of the same binder?
A: < 1e-07 s⁻¹

Q: And the kon [4]?
A: 447000 M⁻¹ s⁻¹

Q: What about the Kd [5] of the same binder?
A: < 0.001 nM

Q: What about the koff [5] of the same binder?
A: < 1e-07 s⁻¹

Q: What about the kon [5] of the same binder?
A: 416000 M⁻¹ s⁻¹

Q: And the Kd [6]?
A: < 0.001 nM

Q: And the koff [6]?
A: < 1e-07 s⁻¹

Q: And the kon [6]?
A: 376000 M⁻¹ s⁻¹

Q: And the Kd [7]?
A: < 0.001 nM

Q: What about the koff [7] of the same binder?
A: < 1e-07 s⁻¹

Q: What about the kon [7] of the same binder?
A: 362000 M⁻¹ s⁻¹

Q: And the Response [8]?
A: 1.3 nm shift

Q: And the Response [9]?
A: 1.14 nm shift

Q: What about the Response [10] of the same binder?
A: 1.7 nm shift

Q: What about the Response [11] of the same binder?
A: 1.35 nm shift

Q: And the Response [12]?
A: 1.54 nm shift

Q: And the Response [13]?
A: 1.58 nm shift

Q: And the Response [14]?
A: 1.76 nm shift

Q: And the Kd [15]?
A: 3.83 nM

Q: What about the koff [15] of the same binder?
A: 0.0043 s⁻¹

Q: And the kon [15]?
A: 1.12e+06 M⁻¹ s⁻¹

Q: What about the Kd [16] of the same binder?
A: 3.24 nM

Q: And the koff [16]?
A: 0.00318 s⁻¹

Q: What about the kon [16] of the same binder?
A: 981000 M⁻¹ s⁻¹

Q: And the Kd [17]?
A: 3.63 nM

Q: And the koff [17]?
A: 0.00406 s⁻¹

Q: What about the kon [17] of the same binder?
A: 1.12e+06 M⁻¹ s⁻¹

Q: What about the Kd [18] of the same binder?
A: 3.17 nM

Q: What about the koff [18] of the same binder?
A: 0.0026 s⁻¹

Q: What about the kon [18] of the same binder?
A: 821000 M⁻¹ s⁻¹

Q: And the Kd [19]?
A: 5.21 nM

Q: And the koff [19]?
A: 0.00469 s⁻¹

Q: What about the kon [19] of the same binder?
A: 900000 M⁻¹ s⁻¹

Q: What about the Kd [20] of the same binder?
A: 5.83 nM

Q: What about the koff [20] of the same binder?
A: 0.00484 s⁻¹

Q: And the kon [20]?
A: 830000 M⁻¹ s⁻¹

Q: What about the Kd [21] of the same binder?
A: 4.31 nM

Q: And the koff [21]?
A: 0.00337 s⁻¹

Q: And the kon [21]?
A: 782000 M⁻¹ s⁻¹

Q: What about the Response [22] of the same binder?
A: 0.513 nm shift

Q: And the Response [23]?
A: 0.46 nm shift

Q: What about the Response [24] of the same binder?
A: 0.477 nm shift

Q: What about the Response [25] of the same binder?
A: 0.552 nm shift

Q: And the Response [26]?
A: 0.472 nm shift

Q: And the Response [27]?
A: 0.474 nm shift

Q: And the Response [28]?
A: 0.411 nm shift
